# Results: patent US20100055104A1 (NEUTEC PHARMA, published 2010)
# Ends that are not written are not given here.
# T1: biotinylated LKVIRK peptide (SEQ ID NO: 4) (also: biotinylated, site not given here)
# T1 construct: Captured non-covalently on a Sensor Chip SA; Any spacer between the biotin and the peptide is not described; also called immobilised peptide
# T1 peptide: LKVIRK
# Experiments:
# recombinant human hsp90α = biological target: T2, recombinant human hsp90α (human, UniProt P07900 1-732, limits assumed); assay: Biacore SPR; human hsp90α amine-coupled to CM-5 chip, Mycograb injected; 1:1 Langmuir fit
# T2 construct: also called human hsp90a; human hsp 90 alpha
# [1] = biological target: T1, biotinylated LKVIRK peptide (SEQ ID NO: …); assay: Biacore SPR; biotinylated peptide captured on SA chip, Mycograb injected; 1:1 Langmuir fit
# [2] = biological target: T3, recombinant hsp90 from Candida albicans (Candida albicans, UniProt P46598 1-707); assay: Biacore SPR; Candida hsp90 amine-coupled to CM-5 chip, Mycograb injected; 1:1 Langmuir fit
# T3 construct: also called Candida hsp90; Candida albicans hsp90
# T3 sequence (P46598 whole entry): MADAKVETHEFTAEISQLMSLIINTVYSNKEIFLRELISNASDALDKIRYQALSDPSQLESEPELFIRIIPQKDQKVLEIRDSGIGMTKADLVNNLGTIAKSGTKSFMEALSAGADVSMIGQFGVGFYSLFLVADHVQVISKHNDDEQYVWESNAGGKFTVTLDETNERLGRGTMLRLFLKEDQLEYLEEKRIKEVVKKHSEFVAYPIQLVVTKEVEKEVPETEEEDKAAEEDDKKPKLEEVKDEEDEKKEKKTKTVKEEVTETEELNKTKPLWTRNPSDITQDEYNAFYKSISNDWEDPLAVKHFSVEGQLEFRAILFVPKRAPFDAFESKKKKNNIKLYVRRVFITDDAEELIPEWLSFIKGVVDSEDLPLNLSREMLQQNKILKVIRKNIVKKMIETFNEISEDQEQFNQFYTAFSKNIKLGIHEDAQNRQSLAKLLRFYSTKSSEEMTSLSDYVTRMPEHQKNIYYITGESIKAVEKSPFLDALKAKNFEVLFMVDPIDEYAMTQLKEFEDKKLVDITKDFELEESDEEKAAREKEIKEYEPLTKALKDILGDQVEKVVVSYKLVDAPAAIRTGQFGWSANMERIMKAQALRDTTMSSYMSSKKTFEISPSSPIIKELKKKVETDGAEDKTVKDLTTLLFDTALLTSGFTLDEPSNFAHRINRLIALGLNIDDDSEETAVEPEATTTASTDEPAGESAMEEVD
binder,measurement,setting,value
"Mycograb® (antibody component, SEQ ID NO: 1) (antibody, Formulated as described in WO-A-01/76627; also called Mycogab; Mycograbg) HMAEVQLVESGAEVKKPGESLRISCKGSGCIISSYWISWVRQMPGKGLEWMGKIDPGDSYINYSPSFQGHVTISADKSINTAYLQWNSLKASDTAMYYCARGGRDFGDSFDYWGQGTLVTVSSGGGGSGGGGSGGGGSDVVMTQSPSFLSAFVGDRITITCRASSGISRYLAWYQQAPGKAPKLLIYAASTLQTGVPSRFSGSGSGTEFTLTINSLQPEDFATYYCQHLNSYPLTFGGGTKVDIKRAA",Kd,recombinant human hsp90α,3270 nM
same,koff,recombinant human hsp90α,0.00321 s⁻¹
same,kon,recombinant human hsp90α,981 M⁻¹ s⁻¹
same,Kd,[1],28.6 nM
same,koff,[1],0.000647 s⁻¹
same,kon,[1],22600 M⁻¹ s⁻¹
same,Kd,[2],717 nM
same,koff,[2],0.000267 s⁻¹
same,kon,[2],373 M⁻¹ s⁻¹
